B1: ZNF263 (parent)
chain: KPYKCTLCGENFSHRSNLIRHQRI

Variants of: B1
Assay: protein stability index of a GFP-peptide fusion (GPS, HEK-293T) (PSI 1-6); higher = more stable
Conditions: c terminus: a fixed tail appended
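Further: lentivirally expressed fusions sorted by FACS into six bins by GFP to DsRed ratio, PSI derived from sequencing read proportions per bin multiplied by bin number.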

| Variant | protein stability index |
| --- | --- |
| KPYKNTLCGENFSHRSNLIRHQRI [C5N] | 2.41 |
| KPYKQTLCGENFSHRSNLIRHQRI [C5Q] | 3.12 |
| KPYKDTLCGENFSHRSNLIRHQRI [C5D] | 2.69 |
| KPYKITLCGENFSHRSNLIRHQRI [C5I] | 1.75 |
| KPYKKTLCGENFSHRSNLIRHQRI [C5K] | 2.44 |
| KPYKHTLCGENFSHRSNLIRHQRI [C5H] | 2.34 |
| KPYKVTLCGENFSHRSNLIRHQRI [C5V] | 2.06 |
| KPYKLTLCGENFSHRSNLIRHQRI [C5L] | 2.47 |
| KPYKFTLCGENFSHRSNLIRHQRI [C5F] | 1.45 |
| KPYKPTLCGENFSHRSNLIRHQRI [C5P] | 2.44 |
| KPYKWTLCGENFSHRSNLIRHQRI [C5W] | 1.61 |
| KPYKATLCGENFSHRSNLIRHQRI [C5A] | 2.52 |
| KPYKETLCGENFSHRSNLIRHQRI [C5E] | 2.19 |
| KPYKRTLCGENFSHRSNLIRHQRI [C5R] | 1.86 |
| KPYKSTLCGENFSHRSNLIRHQRI [C5S] | 2.43 |
| KPYKTTLCGENFSHRSNLIRHQRI [C5T] | 2.09 |
| KPYKGTLCGENFSHRSNLIRHQRI [C5G] | 2.22 |
| KPYKMTLCGENFSHRSNLIRHQRI [C5M] | 1.67 |
| KPYNCTLCGENFSHRSNLIRHQRI [K4N] | 1.94 |
| KPYPCTLCGENFSHRSNLIRHQRI [K4P] | 1.96 |
| KPYWCTLCGENFSHRSNLIRHQRI [K4W] | 2.35 |
| KPYACTLCGENFSHRSNLIRHQRI [K4A] | 2.32 |
| KPYTCTLCGENFSHRSNLIRHQRI [K4T] | 2.52 |
| KPYHCTLCGENFSHRSNLIRHQRI [K4H] | 2.95 |

| Variant | protein stability index |
| --- | --- |
| KPYYCTLCGENFSHRSNLIRHQRI [K4Y] | 2.16 |
| KPYDCTLCGENFSHRSNLIRHQRI [K4D] | 1.75 |
| KPYGCTLCGENFSHRSNLIRHQRI [K4G] | 2.35 |
| KPYQCTLCGENFSHRSNLIRHQRI [K4Q] | 2.48 |
| KPYECTLCGENFSHRSNLIRHQRI [K4E] | 2.35 |
| KPYICTLCGENFSHRSNLIRHQRI [K4I] | 2.87 |
| KPYRCTLCGENFSHRSNLIRHQRI [K4R] | 2.54 |
| KPYCCTLCGENFSHRSNLIRHQRI [K4C] | 1.7 |
| KPYLCTLCGENFSHRSNLIRHQRI [K4L] | 1.84 |
| KPYSCTLCGENFSHRSNLIRHQRI [K4S] | 1.9 |
| KPYMCTLCGENFSHRSNLIRHQRI [K4M] | 2.23 |
| KPYVCTLCGENFSHRSNLIRHQRI [K4V] | 2.87 |
| KPYFCTLCGENFSHRSNLIRHQRI [K4F] | 2.01 |
| KHYKCTLCGENFSHRSNLIRHQRI [P2H] | 2.49 |
| KAYKCTLCGENFSHRSNLIRHQRI [P2A] | 2.7 |
| KYYKCTLCGENFSHRSNLIRHQRI [P2Y] | 2.14 |
| KIYKCTLCGENFSHRSNLIRHQRI [P2I] | 2.33 |
| KGYKCTLCGENFSHRSNLIRHQRI [P2G] | 2.77 |
| KMYKCTLCGENFSHRSNLIRHQRI [P2M] | 2.05 |
| KQYKCTLCGENFSHRSNLIRHQRI [P2Q] | 2.09 |
| KKYKCTLCGENFSHRSNLIRHQRI [P2K] | 2.92 |
| KTYKCTLCGENFSHRSNLIRHQRI [P2T] | 2.53 |
| KVYKCTLCGENFSHRSNLIRHQRI [P2V] | 2.98 |
| KRYKCTLCGENFSHRSNLIRHQRI [P2R] | 3.12 |

| Variant | protein stability index |
| --- | --- |
| KFYKCTLCGENFSHRSNLIRHQRI [P2F] | 2.12 |
| KEYKCTLCGENFSHRSNLIRHQRI [P2E] | 2.67 |
| KNYKCTLCGENFSHRSNLIRHQRI [P2N] | 2.49 |
| KLYKCTLCGENFSHRSNLIRHQRI [P2L] | 2.53 |
| KCYKCTLCGENFSHRSNLIRHQRI [P2C] | 2.02 |
| KSYKCTLCGENFSHRSNLIRHQRI [P2S] | 2.59 |
| KDYKCTLCGENFSHRSNLIRHQRI [P2D] | 2.3 |
| KWYKCTLCGENFSHRSNLIRHQRI [P2W] | 2.05 |
| EPYKCTLCGENFSHRSNLIRHQRI [K1E] | 3.25 |
| APYKCTLCGENFSHRSNLIRHQRI [K1A] | 2.19 |
| PPYKCTLCGENFSHRSNLIRHQRI [K1P] | 3.08 |
| YPYKCTLCGENFSHRSNLIRHQRI [K1Y] | 2.69 |
| FPYKCTLCGENFSHRSNLIRHQRI [K1F] | 2.56 |
| HPYKCTLCGENFSHRSNLIRHQRI [K1H] | 2.47 |
| WPYKCTLCGENFSHRSNLIRHQRI [K1W] | 1.92 |
| SPYKCTLCGENFSHRSNLIRHQRI [K1S] | 2.81 |
| LPYKCTLCGENFSHRSNLIRHQRI [K1L] | 2.25 |
| GPYKCTLCGENFSHRSNLIRHQRI [K1G] | 2.27 |
| TPYKCTLCGENFSHRSNLIRHQRI [K1T] | 2.08 |
| VPYKCTLCGENFSHRSNLIRHQRI [K1V] | 1.56 |
| MPYKCTLCGENFSHRSNLIRHQRI [K1M] | 2.65 |
| NPYKCTLCGENFSHRSNLIRHQRI [K1N] | 2.12 |
| RPYKCTLCGENFSHRSNLIRHQRI [K1R] | 2.66 |
| IPYKCTLCGENFSHRSNLIRHQRI [K1I] | 2.16 |

| Variant | protein stability index |
| --- | --- |
| QPYKCTLCGENFSHRSNLIRHQRI [K1Q] | 2.38 |
| DPYKCTLCGENFSHRSNLIRHQRI [K1D] | 3.07 |
| CPYKCTLCGENFSHRSNLIRHQRI [K1C] | 2.67 |
| KPLKCTLCGENFSHRSNLIRHQRI [Y3L] | 2.64 |
| KPNKCTLCGENFSHRSNLIRHQRI [Y3N] | 2.47 |
| KPHKCTLCGENFSHRSNLIRHQRI [Y3H] | 1.34 |
| KPMKCTLCGENFSHRSNLIRHQRI [Y3M] | 1.73 |
| KPKKCTLCGENFSHRSNLIRHQRI [Y3K] | 3.17 |
| KPDKCTLCGENFSHRSNLIRHQRI [Y3D] | 1.84 |
| KPQKCTLCGENFSHRSNLIRHQRI [Y3Q] | 2.14 |
| KPGKCTLCGENFSHRSNLIRHQRI [Y3G] | 1.84 |
| KPTKCTLCGENFSHRSNLIRHQRI [Y3T] | 2.4 |
| KPCKCTLCGENFSHRSNLIRHQRI [Y3C] | 2.47 |
| KPSKCTLCGENFSHRSNLIRHQRI [Y3S] | 2.11 |
| KPEKCTLCGENFSHRSNLIRHQRI [Y3E] | 1.78 |
| KPWKCTLCGENFSHRSNLIRHQRI [Y3W] | 2.42 |
| KPRKCTLCGENFSHRSNLIRHQRI [Y3R] | 3.54 |
| KPFKCTLCGENFSHRSNLIRHQRI [Y3F] | 2.23 |
| KPVKCTLCGENFSHRSNLIRHQRI [Y3V] | 2.28 |
| KPPKCTLCGENFSHRSNLIRHQRI [Y3P] | 1.85 |
| KPAKCTLCGENFSHRSNLIRHQRI [Y3A] | 1.9 |
| KPIKCTLCGENFSHRSNLIRHQRI [Y3I] | 1.55 |
